Experimental data reported in publication PMC12518693, “Potent Fluorescent Probe for Target‐Engagement Studies of Allosteric Pyruvate Kinase Modulators” (Angewandte Chemie (International Ed. in English), 2025).
Where “and” joins values, the source holds several entries; their conditions need not be identical. Equal entries are not always repeated.

Biological target: the molecule itself
Experiment: native gel or EMSA; recombinant protein incubated with tracer IV (0.15-10 uM) or DMSO at room temperature, native PAGE on 3%-12% bis-tris gel; bands seen by in-gel luminescence (Nluc substrate), colloidal blue staining and western blot; no FBP

Protein	stoichiometry N
PKL-Nluc fusion, nanoluciferase fused to the N-terminus of PKL, recombinant (enzyme, Pyruvate kinase, liver isoform (PKL), human; The bands were detected by in-gel luminescence of the Nluc part; source: recombinant, expressed and purified; not shown: Nluc, N-terminal, kept) not shown	4 and 2
liver isoform of pyruvate kinase (PKL), wild type, recombinant (enzyme, Pyruvate kinase, liver isoform (PKL), human; The same molecule is used for the native PAGE protein and for the crystallised protein; Construct details are probably in the Supporting Information; also called PKLwt; source: recombinant) not shown	4
